In IntAct's records for PubMed 24525235:

B1: Twist-related protein 1 (Homo sapiens), Q15672 (parent)
chain: MMQDVSSSPVSPADDSLSNSEEEPDRQQPPSGKRGGRKRRSSRRSAGGGAGPGGAAGGGVGGGDEPGSPAQGKRGKKSAGCGGGGGAGGGGGSSSGGGSPQSYEELQTQRVMANVRERQRTQSLNEAFAALRKIIPTLPSDKLSKIQTLKLAARYIDFLYQVLQSDELDSKMASCSYVAHERLSYAFSVWRMEGAWSMSASH

Variants of: B1
Conditions: with BRD4, O60885-1

Variant	effect of a mutation on the interaction
K73R	decreasing interaction strength
K76R	decreasing interaction strength
K73R;K76R	disrupting interaction strength
